Publication PMC11779849

How the values were obtained:
[1] = molecular target: full length W2A-Pcad with an mCherry tag on the C-terminus (human); assay: co-IP; lysates of A431 Pcad-mCherry cells grown 48 h without or with CQY684 Fab (200 nM); anti-mCherry rabbit mAb on magnetic protein G beads pulls down Pcad as bait; p120 detected by Western blot, p120/Pcad ratio normalised to WT -CQY; M2 lysis buffer pH 7.5, 50 mM Tris-HCl, 150 mM NaCl, 1% SDS, 1% Triton-X 100
[2] = molecular target: full length WT-Pcad with an mCherry tag on the C-terminus (human) (UniProt P22223); assay: as above
Chain of full length WT-Pcad with an mCherry tag on the C-terminus (human) (P22223 25-829): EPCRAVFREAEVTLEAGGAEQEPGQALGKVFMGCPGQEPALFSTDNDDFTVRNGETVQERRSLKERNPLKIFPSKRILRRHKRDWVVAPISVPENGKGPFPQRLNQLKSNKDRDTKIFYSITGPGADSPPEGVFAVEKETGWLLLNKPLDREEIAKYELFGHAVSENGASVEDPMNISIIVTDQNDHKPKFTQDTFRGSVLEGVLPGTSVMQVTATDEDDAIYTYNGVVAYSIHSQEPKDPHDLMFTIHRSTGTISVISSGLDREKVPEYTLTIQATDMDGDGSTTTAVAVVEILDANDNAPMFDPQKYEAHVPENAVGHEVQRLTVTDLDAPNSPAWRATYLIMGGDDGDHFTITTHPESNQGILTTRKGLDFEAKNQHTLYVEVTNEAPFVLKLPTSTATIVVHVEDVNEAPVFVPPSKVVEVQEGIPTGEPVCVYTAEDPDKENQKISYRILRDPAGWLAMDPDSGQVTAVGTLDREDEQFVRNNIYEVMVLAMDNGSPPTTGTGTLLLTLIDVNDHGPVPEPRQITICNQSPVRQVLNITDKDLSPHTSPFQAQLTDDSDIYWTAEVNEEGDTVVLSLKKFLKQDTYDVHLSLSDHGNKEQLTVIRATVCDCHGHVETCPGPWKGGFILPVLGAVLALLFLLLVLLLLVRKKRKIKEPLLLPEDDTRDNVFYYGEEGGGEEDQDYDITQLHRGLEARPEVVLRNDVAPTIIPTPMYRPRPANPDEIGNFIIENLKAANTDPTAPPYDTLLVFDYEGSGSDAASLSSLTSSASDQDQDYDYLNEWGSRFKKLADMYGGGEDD

Chain of full length W2A-Pcad with an mCherry tag on the C-terminus (human) (P22223 whole entry W109A): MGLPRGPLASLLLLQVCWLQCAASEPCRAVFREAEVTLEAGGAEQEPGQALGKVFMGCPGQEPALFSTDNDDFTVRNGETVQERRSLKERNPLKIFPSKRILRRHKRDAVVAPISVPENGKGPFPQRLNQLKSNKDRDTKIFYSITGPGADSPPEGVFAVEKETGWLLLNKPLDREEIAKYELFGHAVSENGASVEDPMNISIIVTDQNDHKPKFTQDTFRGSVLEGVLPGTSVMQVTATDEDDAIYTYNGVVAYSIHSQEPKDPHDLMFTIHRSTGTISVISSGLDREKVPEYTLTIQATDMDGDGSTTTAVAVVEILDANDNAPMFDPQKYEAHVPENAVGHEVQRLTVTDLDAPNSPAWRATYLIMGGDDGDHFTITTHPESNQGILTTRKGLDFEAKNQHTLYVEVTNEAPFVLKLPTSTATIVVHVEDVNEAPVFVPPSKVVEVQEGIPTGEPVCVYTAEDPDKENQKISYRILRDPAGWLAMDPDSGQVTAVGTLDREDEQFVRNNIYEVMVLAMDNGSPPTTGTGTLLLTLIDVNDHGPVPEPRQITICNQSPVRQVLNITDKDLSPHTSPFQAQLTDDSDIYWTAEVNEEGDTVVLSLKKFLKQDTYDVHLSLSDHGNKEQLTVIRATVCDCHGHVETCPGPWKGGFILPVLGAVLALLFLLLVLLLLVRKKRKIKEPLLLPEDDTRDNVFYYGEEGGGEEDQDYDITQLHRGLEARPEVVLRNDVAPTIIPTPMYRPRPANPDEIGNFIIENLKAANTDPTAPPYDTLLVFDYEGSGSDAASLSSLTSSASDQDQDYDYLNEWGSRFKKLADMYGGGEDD

B1: p120-catenin (natural protein)
chain: MDDSEVESTASILASVKEQEAQFEKLTRALEEERRHVSAQLERVRVSPQDANPLMANGTLTRRHQNGRFVGDADLERQKFSDLKLNGPQDHSHLLYSTIPRMQEPGQIVETYTEEDPEGAMSVVSVETSDDGTTRRTETTVKKVVKTVTTRTVQPVAMGPDGLPVDASSVSNNYIQTLGRDFRKNGNGGPGPYVGQAGTATLPRNFHYPPDGYSRHYEDGYPGGSDNYGSLSRVTRIEERYRPSMEGYRAPSRQDVYGPQPQVRVGGSSVDLHRFHPEPYGLEDDQRSMGYDDLDYGMMSDYGTARRTGTPSDPRRRLRSYEDMIGEEVPSDQYYWAPLAQHERGSLASLDSLRKGGPPPPNWRQPELPEVIAMLGFRLDAVKSNAAAYLQHLCYRNDKVKTDVRKLKGIPVLVGLLDHPKKEVHLGACGALKNISFGRDQDNKIAIKNCDGVPALVRLLRKARDMDLTEVITGTLWNLSSHDSIKMEIVDHALHALTDEVIIPHSGWEREPNEDCKPRHIEWESVLTNTAGCLRNVSSERSEARRKLRECDGLVDALIFIVQAEIGQKDSDSKLVENCVCLLRNLSYQVHREIPQAERYQEAAPNVANNTGPHAASCFGAKKGKDEWFSRGKKPIEDPANDTVDFPKRTSPARGYELLFQPEVVRIYISLLKESKTPAILEASAGAIQNLCAGRWTYGRYIRSALRQEKALSAIADLLTNEHERVVKAASGALRNLAVDARNKELIGKHAIPNLVKNLPGGQQNSSWNFSEDTVISILNTINEVIAENLEAAKKLRETQGIEKLVLINKSGNRSEKEVRAAALVLQTIWGYKELRKPLEKEGWKKSDFQVNLNNASRSQSSHSYDDSTLPLIDRNQKSDKKPDREEIQMSNMGSNTKSLDNNYSTPNERGDHNRTLDRSGDLGDMEPLKGTTPLMQDEGQESLEEELDVLVLDDEGGQVSYPSMQKI
p120 associated with Pcad, percent of the WT -CQY condition [1]: 30% | p120 associated with Pcad in cells grown with CQY684 Fab, percent of the WT -CQY condition [2]: 60%
